Experimental data from patent US20220047716A1 (SUTRO BIOPHARMA, published 2022).
Numbering of substitutions follows the chain as printed.

Molecular target: human folate receptor alpha (hFOLR1) (human, UniProt P15328 25-234)
Assay: cell-based or functional assay

human folate receptor alpha (hFOLR1), sequence (P15328 25-234 limits assumed): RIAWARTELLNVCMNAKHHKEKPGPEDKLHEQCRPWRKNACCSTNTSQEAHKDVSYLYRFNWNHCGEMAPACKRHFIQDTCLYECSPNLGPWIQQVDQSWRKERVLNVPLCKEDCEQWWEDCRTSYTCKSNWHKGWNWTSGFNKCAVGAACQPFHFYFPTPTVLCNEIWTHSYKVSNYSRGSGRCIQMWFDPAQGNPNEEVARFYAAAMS

B1: SRP1848-B03 (antibody, V domains shown)
VH: EVQLVESGGGLVQPGGSLRLSCAASGFNISMKYIHWVRQAPGKGLEWVGGITPIDGMTDYADSVKGRFTISADTSKNTAYLQMNSLRAEDTAVYYCARGSWSWPSGYSYYLDYWGQGTLVTVSS
VL: not shown
B1 was tested, and the “Igrov 2° antibody cell killing EC50” value was 0.028 nM, the “Igrov 2° antibody cell killing Span” value was 66% and the “KB 2° antibody cell killing EC50” value was 0.05 nM. For the same binder, the “KB 2° antibody cell killing Span” value was 94%.

B2: SRP1848-D10 (antibody, V domains shown)
VH: EVQLVESGGGLVQPGGSLRLSCAASGFNISRNSIHWVRQAPGKGLEWVGWISPNDGTTDYADSVKGRFTISADGSKNTAYLQMNSLRAEDTAVYYCARGAWSWRSGYGYYIDYWGQGTLVTVSS
VL: not shown
With B2 the “Igrov 2° antibody cell killing EC50” value was 0.012 nM, the “Igrov 2° antibody cell killing Span” value was 54% and the “KB 2° antibody cell killing EC50” value was 0.016 nM. The “KB 2° antibody cell killing Span” value was 90%.

B3: SRP1848-B06 (antibody, V domains shown)
VH: B1 VH with M31N, K32Y, M57Y, S100F, S108G, L111Q
VL: not shown
For B3, the “Igrov 2° antibody cell killing EC50” value was 0.022 nM, the “Igrov 2° antibody cell killing Span” value was 72% and the “KB 2° antibody cell killing EC50” value was 0.058 nM. The “KB 2° antibody cell killing Span” value was 95%.

B4: SRP1848-C01 (antibody, V domains shown)
VH: EVQLVESGGGLVQPGGSLRLSCAASGFNIGNSYIHWVRQAPGKGLEWVGGVTPNDGYTDYADSVKGRFTISADTSKNTTYLQMNSLRAEDTAVYYCARGSWFWRAGYGYYLDYWGQGALVTVSS
VL: not shown
B4 was tested, and the “Igrov 2° antibody cell killing EC50” value was 0.023 nM, the “Igrov 2° antibody cell killing Span” value was 68% and the “KB 2° antibody cell killing Span” value was 90%.

B5: SRP1848-C10 (antibody, V domains shown)
VH: B1 VH with S30R, M31T, K32Y, T52S, M57Y, S105A, S108G
VL: not shown
For B5, the “Igrov 2° antibody cell killing EC50” value was 0.036 nM, the “Igrov 2° antibody cell killing Span” value was 75% and the “KB 2° antibody cell killing EC50” value was 0.057 nM. For the same binder, the “KB 2° antibody cell killing Span” value was 96%.

B6: SRP1848-B07 (antibody, V domains shown)
VH: B1 VH with M31R, K32F, T52S, I54Y, M57F, S105A, S108G, L111Q
VL: not shown
B6 was tested, and the “Igrov 2° antibody cell killing EC50” value was 0.038 nM, the “Igrov 2° antibody cell killing Span” value was 73% and the “KB 2° antibody cell killing EC50” value was 0.079 nM. The “KB 2° antibody cell killing Span” value was 96%.

B7: SRP1848-D02 (antibody, V domains shown)
VH: B1 VH with M31H, K32N, I54Q, M57Y, S85R, S100A, P104R, S105A, S108G
VL: not shown
For B7, the “Igrov 2° antibody cell killing EC50” value was 0.027 nM, the “Igrov 2° antibody cell killing Span” value was 71% and the “KB 2° antibody cell killing EC50” value was 0.034 nM. For the same binder, the “KB 2° antibody cell killing Span” value was 93%.

B8: SRP1848-E01 (antibody, V domains shown)
VH: B1 VH with S30T, M31N, I54F, M57F, S105A, S108G, L111Q
VL: not shown
With B8 the “Igrov 2° antibody cell killing EC50” value was 0.029 nM, the “Igrov 2° antibody cell killing Span” value was 72% and the “KB 2° antibody cell killing EC50” value was 0.088 nM. The “KB 2° antibody cell killing Span” value was 92%.

B9: SRP1848-C05 (antibody, V domains shown)
VH: EVQLVESGGGLVQPGGSLRLSCAASGFNIRKYSIHWVRQAPGKGLEWVGDIFPIDGINDYADSVKGRFTISADTSKNTAYLQMNSLRAEDTAVYYCARGSWSWKAGYGYYLDYWGQGTLVTVSS
VL: not shown
With B9 the “Igrov 2° antibody cell killing EC50” value was 0.021 nM, the “Igrov 2° antibody cell killing Span” value was 62% and the “KB 2° antibody cell killing EC50” value was 0.073 nM. The “KB 2° antibody cell killing Span” value was 92%.

B10: SRP1848-D09 (antibody, V domains shown)
VH: B4 VH with G30S, S32Y, V51I, T52S, T79A, F102S, A105H, A118T
VL: not shown
In the case of B10, the “Igrov 2° antibody cell killing EC50” value is reported as 0.023 nM, the “Igrov 2° antibody cell killing Span” value is reported as 70% and the “KB 2° antibody cell killing EC50” value is reported as 0.042 nM. For the same binder, the “KB 2° antibody cell killing Span” value was 91%.

B11: SRP1848-B10 (antibody, V domains shown)
VH: EVQLVESGGGLVQPGGSLRLSCAASGFNTTTKSIHWVRQAPGKGLEWVGEIYPRDGITDYADSVKGRFTISADTSKNTAYLQMNSLRAEDTAVYYCARGGWHWRSGYSYYLDYWGQGTLVTVSS
VL: not shown
B11 was tested, and the “Igrov 2° antibody cell killing Span” value was 71%, the “KB 2° antibody cell killing EC50” value was 0.04 nM and the “KB 2° antibody cell killing Span” value was 97%.

B12: SRP1848-B05 (antibody, V domains shown)
VH: B1 VH with M31N, K32Y, T52S, M57Y, V64M, N84S, S102F, P104Q, S108G
VL: not shown
For B12, the “Igrov 2° antibody cell killing EC50” value was 0.04 nM, the “Igrov 2° antibody cell killing Span” value was 72% and the “KB 2° antibody cell killing EC50” value was 0.065 nM. For the same binder, the “KB 2° antibody cell killing Span” value was 94%.

B13: SRP1848-D04 (antibody, V domains shown)
VH: B11 VH with T29I, T30S, T31H, K32Y, R87S, G100Y, H102F, S108G
VL: not shown
B13 was tested, and the “Igrov 2° antibody cell killing EC50” value was 0.068 nM, the “Igrov 2° antibody cell killing Span” value was 77% and the “KB 2° antibody cell killing EC50” value was 0.38 nM. The “KB 2° antibody cell killing Span” value was 97%.

B14: SRP1848-C03 (antibody, V domains shown)
VH: B11 VH with T29I, T30G, T31V, K32Y, R54I, I57N, G100S, H102A
VL: not shown
In the case of B14, the “Igrov 2° antibody cell killing EC50” value is reported as 0.035 nM, the “Igrov 2° antibody cell killing Span” value is reported as 72% and the “KB 2° antibody cell killing EC50” value is reported as 0.074 nM. The “KB 2° antibody cell killing Span” value was 93%.

B15: SRP1848-C07 (antibody, V domains shown)
VH: B9 VH with N58T, V64M, K104P, L111Q
VL: not shown
With B15 the “Igrov 2° antibody cell killing EC50” value was 0.013 nM, the “Igrov 2° antibody cell killing Span” value was 67% and the “KB 2° antibody cell killing EC50” value was 0.065 nM. For the same binder, the “KB 2° antibody cell killing Span” value was 93%.

B16: SRP1848-D07 (antibody, V domains shown)
VH: B1 VH with M31K, K32Y, T52S, I54N, M57Y, T69A, S100F, S102A, P104R, S108G
VL: not shown
B16 was tested, and the “Igrov 2° antibody cell killing EC50” value was 0.032 nM, the “Igrov 2° antibody cell killing Span” value was 71% and the “KB 2° antibody cell killing EC50” value was 0.075 nM. The “KB 2° antibody cell killing Span” value was 94%.

B17: SRP1848-C04 (antibody, V domains shown)
VH: B9 VH with K31H, D50E, F52Y, I54G, D55P, I57N, N58T, W101L, K104R
VL: not shown
With B17 the “Igrov 2° antibody cell killing EC50” value was 0.016 nM, the “Igrov 2° antibody cell killing Span” value was 68% and the “KB 2° antibody cell killing EC50” value was 0.006 nM. For the same binder, the “KB 2° antibody cell killing Span” value was 94%.

B18: SRP1848-B04 (antibody, V domains shown)
VH: B11 VH with G26S, T29I, T30S, T31N, K32H, R54V, G100R, W101Y, H102S, S105A
VL: not shown
In the case of B18, the “Igrov 2° antibody cell killing EC50” value is reported as 0.018 nM, the “Igrov 2° antibody cell killing Span” value is reported as 70% and the “KB 2° antibody cell killing EC50” value is reported as 0.035 nM. For the same binder, the “KB 2° antibody cell killing Span” value was 94%.

B19: SRP1848-B11 (antibody, V domains shown)
VH: B9 VH with R30G, K31N, Y32N, F52S, I57F, N58T, K104R
VL: not shown
For B19, the “Igrov 2° antibody cell killing EC50” value was 0.026 nM, the “Igrov 2° antibody cell killing Span” value was 74% and the “KB 2° antibody cell killing EC50” value was 0.058 nM. The “KB 2° antibody cell killing Span” value was 93%.

B20: SRP1848-D05 (antibody, V domains shown)
VH: B1 VH with M31I, K32S, T52S, M57Y, P104R, S105A, S108G
VL: not shown
B20 was tested, and the “Igrov 2° antibody cell killing Span” value was 73%, the “KB 2° antibody cell killing EC50” value was 0.055 nM and the “KB 2° antibody cell killing Span” value was 92%.

B21: SRP1848-B09 (antibody, V domains shown)
VH: EVQLVESGGGLVQPGGSLRLSCAAGGFNITNYYIHWVRQAPGKGLEWVGGITPVDGYTDYADRVKGRFTISADTSKNTAYLQMNSLRAEDTAVYYCARGAWSWRSGYGYYMDYWGQGTLVTVSS
VL: not shown
With B21 the “Igrov 2° antibody cell killing EC50” value was 0.027 nM, the “Igrov 2° antibody cell killing Span” value was 74% and the “KB 2° antibody cell killing EC50” value was 0.073 nM. For the same binder, the “KB 2° antibody cell killing Span” value was 97%.
